In the assay the target is NKG2D ligands (NKG2DL) on target cells. As to the kind of experiment: cell-based or functional assay.

For “NKG2D-DAP10-CD3zeta chimeric receptor complex (from UniProt Q9UBK5 19-93)”, the target cell apoptosis (U-2 OS), apoptotic cells/0.07 mm^2 (apoptotic cells/0.07 mm^2) worked out at 11.7.
